Source: the Immune Epitope Database (IEDB)

Experiments:
Test in all cases: IEDB peptide-MHC binding, purified MHC/competitive/radioactivity; filed as Kd, often an IC50 or EC50 that approximates it; ≥ and ≤ were set here for values at or beyond the usual limits of such assays
[1] = target: HLA-A*02:06
[2] = target: HLA-A*02:03
[3] = target: HLA-A*02:02
[4] = target: HLA-A*33:01
[5] = target: HLA-A*03:01
[6] = target: HLA-A*31:01
[7] = target: HLA-A*11:01
[8] = target: HLA-A*68:01
[9] = source organism: Vaccinia virus WR
[10] = source organism: SARS coronavirus Tor2
[11] = source organism: Dengue virus 2 Jamaica/1409/1983
[12] = source organism: Lymphocytic choriomeningitis virus (strain Armstrong)
[13] = source organism: Mammarenavirus machupoense
[14] = source organism: Mammarenavirus lassaense
[15] = source organism: Lassa virus Josiah

Question: What does the source list for AAAKTPVIVV?
Answer: Kd [1, 9]: 13.4 µM; Kd [2, 9]: 1.52 µM; Kd [3, 9]: 8.04 µM

Question: Which Kd [1, 9] does the source give for AAVIIMAINV here?
Answer: 0.446 µM

Question: What about the Kd [2, 9] of the same sequence?
Answer: 0.607 µM

Question: What about the Kd [3, 9] of the same sequence?
Answer: 1.29 µM

Question: With AIILASFSA as the sequence, how does the Kd [1, 10] read?
Answer: 0.0816 µM

Question: And the Kd [2, 10]?
Answer: 0.176 µM

Question: And the Kd [3, 10]?
Answer: 0.201 µM

Question: AIKSNNHLT was tested. Which Kd [1, 9] did it give?
Answer: ≥ 77.1 µM

Question: What about the Kd [2, 9] of the same sequence?
Answer: ≥ 28.6 µM

Question: And the Kd [3, 9]?
Answer: ≥ 50.7 µM

Question: How did the Kd [1, 11] turn out when AILLVAVSFV was run?
Answer: 0.0609 µM

Question: How did the Kd [1, 10] turn out when AMWLLLLSI was run?
Answer: 0.268 µM

Question: What about the Kd [2, 10] of the same sequence?
Answer: 0.205 µM

Question: What about the Kd [3, 10] of the same sequence?
Answer: 0.357 µM

Question: Which Kd [1, 9] does the source give for AVANCVRNL here?
Answer: 1.38 µM

Question: What about the Kd [2, 9] of the same sequence?
Answer: 0.114 µM

Question: And the Kd [3, 9]?
Answer: 0.0663 µM

Question: How did the Kd [1, 9] turn out when CALVSDCAST was run?
Answer: 2.6 µM

Question: And the Kd [2, 9]?
Answer: 0.146 µM

Question: What about the Kd [3, 9] of the same sequence?
Answer: 6.41 µM

Question: What does the source list for DINESMSQMV?
Answer: Kd [1, 9]: 4.15 µM; Kd [2, 9]: 0.488 µM; Kd [3, 9]: 0.312 µM

Question: What does the source list for DISDVKVLAA?
Answer: Kd [1, 9]: 4.61 µM; Kd [2, 9]: 2.2 µM; Kd [3, 9]: ≥ 33.8 µM

Question: Which results are given for DLAIKQYGDI?
Answer: Kd [1, 9]: ≥ 46.5 µM; Kd [2, 9]: ≥ 33.3 µM; Kd [3, 9]: 17.9 µM

Question: EAFETQSGAL was tested. Which Kd [1, 9] did it give?
Answer: 15 µM

Question: What about the Kd [2, 9] of the same sequence?
Answer: 0.995 µM

Question: What about the Kd [3, 9] of the same sequence?
Answer: 8.56 µM

Question: What does the source list for EILSNTTKTL?
Answer: Kd [1, 9]: ≥ 69.8 µM; Kd [2, 9]: 0.101 µM; Kd [3, 9]: 0.345 µM

Question: Which Kd [1, 9] does the source give for ELENKKVEYV here?
Answer: ≥ 69.8 µM

Question: What about the Kd [2, 9] of the same sequence?
Answer: 3.65 µM

Question: And the Kd [3, 9]?
Answer: ≥ 21.4 µM

Question: How did the Kd [1, 9] turn out when ELTSNCTRT was run?
Answer: ≥ 46.5 µM

Question: What about the Kd [2, 9] of the same sequence?
Answer: ≥ 78.1 µM

Question: And the Kd [3, 9]?
Answer: ≥ 77.8 µM

Question: How did the Kd [1, 9] turn out when FLDWIKDIMT was run?
Answer: 0.14 µM

Question: And the Kd [2, 9]?
Answer: 0.146 µM

Question: And the Kd [3, 9]?
Answer: 0.424 µM

Question: Which results are given for FLVLIMLII?
Answer: Kd [1, 10]: 1.35 µM; Kd [2, 10]: 9.73 µM; Kd [3, 10]: 1.63 µM

Question: Which results are given for FMLNVSYLC?
Answer: Kd [1, 12]: 0.932 µM; Kd [2, 12]: 1.25 µM; Kd [3, 12]: 0.196 µM

Question: FQRVLIFIL was tested. Which Kd ([1]; source organism: Dengue virus 2 Peru/IQT2913/1996) did it give?
Answer: 1.58 µM

Question: Which results are given for FTEEQQQSFM?
Answer: Kd [1, 9]: 0.833 µM; Kd [2, 9]: 1.75 µM; Kd [3, 9]: 1.12 µM

Question: What does the source list for FTELENKKV?
Answer: Kd [1, 9]: 6.84 µM; Kd [2, 9]: 8.08 µM; Kd [3, 9]: 19.6 µM

Question: Which Kd [1, 10] does the source give for FTLLFQLCT here?
Answer: 0.14 µM

Question: What about the Kd [2, 10] of the same sequence?
Answer: 0.744 µM

Question: What about the Kd [3, 10] of the same sequence?
Answer: 1.1 µM

Question: Which results are given for GTMPSLTMAC?
Answer: Kd [1, 12]: 12.1 µM; Kd [2, 12]: 16.3 µM; Kd [3, 12]: ≥ 25.2 µM

Question: Which results are given for GVPHSVFIA?
Answer: Kd [1, 9]: 0.101 µM; Kd [2, 9]: 3.63 µM; Kd [3, 9]: 5.37 µM

Question: HAFLCLFLL was tested. Which Kd [1, 10] did it give?
Answer: 0.00122 µM

Question: And the Kd [2, 10]?
Answer: 0.0465 µM

Question: What about the Kd [3, 10] of the same sequence?
Answer: 0.0207 µM

Question: How did the Kd [1, 9] turn out when IAGGVCYYL was run?
Answer: 1.41 µM

Question: And the Kd [2, 9]?
Answer: 1.68 µM

Question: What about the Kd [3, 9] of the same sequence?
Answer: 0.0531 µM

Question: For IAVSVYGAI, which Kd [1, 9] is on record?
Answer: 1.1 µM

Question: What about the Kd [2, 9] of the same sequence?
Answer: 0.124 µM

Question: What about the Kd [3, 9] of the same sequence?
Answer: 1.48 µM

Question: Which Kd ([2]; source organism: Dengue virus 3 Martinique/1243/1999) does the source give for ILAGPMPVTA here?
Answer: 0.125 µM

Question: What does the source list for ILISLINSLV?
Answer: Kd [1, 9]: 0.151 µM; Kd [2, 9]: 0.00308 µM; Kd [3, 9]: 0.0229 µM

Question: Which results are given for IQYRQQLEL?
Answer: Kd [1, 9]: 0.0413 µM; Kd [2, 9]: 0.0449 µM; Kd [3, 9]: 0.511 µM

Question: What does the source list for ITDQTVNICI?
Answer: Kd [1, 9]: 10.4 µM; Kd [2, 9]: ≥ 70.4 µM; Kd [3, 9]: ≥ 70 µM

Question: ITLILSNKL was tested. Which Kd [1, 9] did it give?
Answer: 0.396 µM

Question: And the Kd [2, 9]?
Answer: 17.1 µM

Question: What about the Kd [3, 9] of the same sequence?
Answer: 5.11 µM

Question: With IVSHLRASTT as the sequence, how does the Kd [1, 9] read?
Answer: 0.173 µM

Question: And the Kd [2, 9]?
Answer: 0.111 µM

Question: What about the Kd [3, 9] of the same sequence?
Answer: 0.139 µM

Question: For IVVPVIDRL, which Kd [1, 9] is on record?
Answer: 0.0309 µM

Question: What about the Kd [2, 9] of the same sequence?
Answer: 0.226 µM

Question: What about the Kd [3, 9] of the same sequence?
Answer: 0.144 µM

Question: IVYGRSNAIL was tested. Which Kd [1, 9] did it give?
Answer: 0.424 µM

Question: And the Kd [2, 9]?
Answer: 0.0334 µM

Question: What about the Kd [3, 9] of the same sequence?
Answer: 0.0916 µM

Question: How did the Kd [1, 10] turn out when KLMGHFSWWT was run?
Answer: 0.0991 µM

Question: And the Kd [2, 10]?
Answer: 0.213 µM

Question: And the Kd [3, 10]?
Answer: 0.0644 µM

Question: With KVLSIMAFIL as the sequence, how does the Kd [1, 9] read?
Answer: 0.0191 µM

Question: And the Kd [2, 9]?
Answer: 0.684 µM

Question: And the Kd [3, 9]?
Answer: 0.00232 µM

Question: With LIKTLSPAHL as the sequence, how does the Kd [1, 9] read?
Answer: 10.2 µM

Question: What about the Kd [2, 9] of the same sequence?
Answer: 0.356 µM

Question: And the Kd [3, 9]?
Answer: 1.85 µM

Question: For LILSNKLLYA, which Kd [1, 9] is on record?
Answer: 0.0361 µM

Question: And the Kd [2, 9]?
Answer: 0.122 µM

Question: And the Kd [3, 9]?
Answer: 0.468 µM

Question: With LIVNSVLLFL as the sequence, how does the Kd [1, 10] read?
Answer: 0.0108 µM

Question: What about the Kd [2, 10] of the same sequence?
Answer: 0.0904 µM

Question: What about the Kd [3, 10] of the same sequence?
Answer: 0.00367 µM

Question: Which results are given for LLDCIMYQS?
Answer: Kd [1, 13]: 3.28 µM; Kd [2, 13]: 2.27 µM; Kd [3, 13]: 1.53 µM

Question: Which Kd [1, 14] does the source give for LLWDYMCIS here?
Answer: 0.408 µM

Question: What about the Kd [2, 14] of the same sequence?
Answer: 0.596 µM

Question: And the Kd [3, 14]?
Answer: 0.146 µM

Question: Which Kd [1, 14] does the source give for LNCLSLLLSV here?
Answer: 0.25 µM

Question: What about the Kd [2, 14] of the same sequence?
Answer: 0.23 µM

Question: What about the Kd [3, 14] of the same sequence?
Answer: 0.123 µM

Question: How did the Kd [1, 15] turn out when LNQAVNNLV was run?
Answer: 13.6 µM

Question: And the Kd [2, 15]?
Answer: 3.35 µM

Question: What about the Kd [3, 15] of the same sequence?
Answer: 0.51 µM

Question: With LTGTFVTAFI as the sequence, how does the Kd [1, 9] read?
Answer: 0.413 µM

Question: What about the Kd [2, 9] of the same sequence?
Answer: 0.596 µM

Question: And the Kd [3, 9]?
Answer: 0.672 µM

Question: LTLKGMSYV was tested. Which Kd ([1]; source organism: Dengue virus 1 Singapore/S275/1990) did it give?
Answer: 0.007 µM

Question: For NTGMGMYYPT, which Kd [1, 9] is on record?
Answer: 11.4 µM

Question: What about the Kd [2, 9] of the same sequence?
Answer: ≥ 21 µM

Question: And the Kd [3, 9]?
Answer: ≥ 23.4 µM

Question: For NTITTFIPI, which Kd [1, 9] is on record?
Answer: 7.77 µM

Question: What about the Kd [2, 9] of the same sequence?
Answer: 0.988 µM

Question: What about the Kd [3, 9] of the same sequence?
Answer: 15.5 µM

Question: How did the Kd [2, 11] turn out when PLVAGGLLTV was run?
Answer: 0.0351 µM

Question: What does the source list for PSAEDNYLAK?
Answer: Kd [4, 9]: 4.12 µM; Kd [5, 9]: ≥ 32.2 µM; Kd [6, 9]: ≥ 20.3 µM; Kd [7, 9]: 0.00864 µM; Kd [8, 9]: 5.71 µM

Question: PVIVVPVIDR was tested. Which Kd [4, 9] did it give?
Answer: 9.18 µM

Question: And the Kd [5, 9]?
Answer: 4.82 µM

Question: What about the Kd [6, 9] of the same sequence?
Answer: 13.2 µM

Question: And the Kd [7, 9]?
Answer: ≥ 21.6 µM

Question: What about the Kd [8, 9] of the same sequence?
Answer: 0.0167 µM

Question: For QCWRSFLNK, which Kd [4, 14] is on record?
Answer: 0.743 µM

Question: What about the Kd [5, 14] of the same sequence?
Answer: 0.567 µM

Question: What about the Kd [6, 14] of the same sequence?
Answer: 0.88 µM

Question: And the Kd [7, 14]?
Answer: 4.95 µM

Question: What about the Kd [8, 14] of the same sequence?
Answer: 13.6 µM

Question: Which Kd ([2]; source organism: Homo sapiens) does the source give for QLFNHTMFIL here?
Answer: 0.00818 µM

Question: What about the Kd ([3]; source organism: Homo sapiens) of the same sequence?
Answer: 0.000423 µM
